Results from the supplement of paper PMC7877785.
± gives the uncertainty stated by the source.

Assay: self-splicing fitness, log relative to wild type (ln ratio); higher = more splicing; Tetrahymena group I intron in knt gene, E. coli kanamycin selection, DiMSum; sequences stand for … in CUCUCU…GGAGGGAAAAGUUAUCAGGCAUGCACCUGGUAGCUAGUCUUUAAACCAAUAGAUUGCAUCGGUUUAAAAGGCAAGACCGUCAAAUUGCGGGAAAGGGGUCAACAGCCGUUCAGUACCAAGUCUCAGGGGAAACUUUGAGAUGGCCUUGCAAAGGGUAUGGUAAUAAGCUGACGGACAUGGUCCUAACCACGCAGCCAAGUCCUAAGUCAACAGAUCUUCUGUUGAUAUGGAUGCAGUUCACAGACUAAAUGUCGGUCGGGGAAGAUGUAUUCUUCUCAUAAGAUAUAGUCGGACCUCUCCUUAAUGGGAGCUAGCGGAUGAAGUGAUGCAACACUGGAGCCGCUGGGAACUAAUUUGUAUGCGAAAGUAUAUUGAUUAGUUUUGGAGUACUCGUGGUCG
In short: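 Colonies from six replicate transformations of E. coli BL21(DE3) were pooled and amplicon-sequenced on an Illumina HiSeq 2500. The library placed an intron with all eight P1ex-region nucleotides randomised inside the knt kanamycin-resistance gene on pET-22b(+), and cells grew overnight at 37°C or 30°C on LB agar with or without 25 μg/mL kanamycin (plus 100 μg/mL carbenicillin, 50 μM IPTG, 0.2% rhamnose). Fitness is the DiMSum error-weighted combination of wild-type-normalised replicate fold changes, kanamycin versus none.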

Sequence	self-splicing fitness (ln) (30 °C)	self-splicing fitness (ln) (37 °C)
AUAGAGCAAUAUUACGUGUU	-3.73 ± 0.19	-2.38 ± 0.18
AUAGAGCAAUAUUACGUUAC	-1.38 ± 0.19	-1.37 ± 0.3
AUAGAGCAAUAUUACGUUUU	-1.43 ± 0.084	-1.3 ± 0.14
AUAUAGCAAUAUUACGACGC	-1.91 ± 0.27	-0.93 ± 0.29
AUAUAGCAAUAUUACGAUAU	-1.87 ± 0.13	-1.33 ± 0.13
AUAUAGCAAUAUUACGAUUG	-2.96 ± 0.18	-3.2 ± 0.4
AUAUAGCAAUAUUACGAUUU	-0.24 ± 0.095	0.694 ± 0.12
AUAUAGCAAUAUUACGCACG	-1.54 ± 0.23	-0.439 ± 0.21
AUAUAGCAAUAUUACGCACU	-0.015 ± 0.13	-0.204 ± 0.16
AUAUAGCAAUAUUACGCAGC	-3.62 ± 0.43	-1.92 ± 0.27
AUAUAGCAAUAUUACGCCGU	-0.99 ± 0.24	-0.413 ± 0.19
AUAUAGCAAUAUUACGCGAC	-2.73 ± 0.22	-2.32 ± 0.21
AUAUAGCAAUAUUACGCGCG	-0.915 ± 0.12	-0.503 ± 0.15
AUAUAGCAAUAUUACGCUGC	–	-1.74 ± 0.34
AUAUAGCAAUAUUACGGAAA	–	-0.209 ± 0.33
AUAUAGCAAUAUUACGGAGC	–	-2.15 ± 0.46
AUAUAGCAAUAUUACGGCAG	-1.74 ± 0.16	-1.79 ± 0.19
AUAUAGCAAUAUUACGGCGU	-0.109 ± 0.11	-0.16 ± 0.12
AUAUAGCAAUAUUACGGCUC	-0.0589 ± 0.13	-0.144 ± 0.16
AUAUAGCAAUAUUACGGGAA	-2.9 ± 0.2	-2.23 ± 0.19

Sequence	self-splicing fitness (ln) (30 °C)	self-splicing fitness (ln) (37 °C)
AUAUAGCAAUAUUACGGGGA	-2.21 ± 0.32	-1.72 ± 0.41
AUAUAGCAAUAUUACGGGUG	-1.81 ± 0.17	-1.3 ± 0.15
AUAUAGCAAUAUUACGGUAC	-3.69 ± 0.39	-2.59 ± 0.22
AUAUAGCAAUAUUACGGUUG	-3.18 ± 0.2	-2.24 ± 0.26
AUAUAGCAAUAUUACGUAAA	-2.17 ± 0.21	-1.56 ± 0.29
AUAUAGCAAUAUUACGUAGA	-2.19 ± 0.094	-1.87 ± 0.15
AUAUAGCAAUAUUACGUAUG	-3.36 ± 0.25	-1.72 ± 0.3
AUAUAGCAAUAUUACGUGGU	-2.88 ± 0.19	-1.54 ± 0.29
AUCAAGCAAUAUUACGAAGU	-2.52 ± 0.11	-1.22 ± 0.12
AUCAAGCAAUAUUACGACAC	-1.45 ± 0.079	-0.324 ± 0.11
AUCAAGCAAUAUUACGACGG	-3.8 ± 0.14	-2.67 ± 0.15
AUCAAGCAAUAUUACGAGAA	-1.21 ± 0.49	-2.28 ± 0.28
AUCAAGCAAUAUUACGAGCA	-1.3 ± 0.075	-0.375 ± 0.076
AUCAAGCAAUAUUACGAGUA	-1.56 ± 0.11	-0.436 ± 0.1
AUCAAGCAAUAUUACGAUAU	-1.21 ± 0.065	-0.753 ± 0.092
AUCAAGCAAUAUUACGAUCA	-1.14 ± 0.1	-0.582 ± 0.11
AUCAAGCAAUAUUACGCCAA	-1.99 ± 0.16	-0.947 ± 0.13
AUCAAGCAAUAUUACGCCGC	-2.23 ± 0.34	–
AUCAAGCAAUAUUACGCCUG	-1.61 ± 0.12	-0.797 ± 0.16
